Measured values from patent US11904007B2, “Protection from stress, anxiety, neuroinflammation, and cognitive dysfunction” (The Regents of the University of Colorado, a body corporate, priority 2018, dated 2024).

B1: rIL4: Recombinant rat IL4 (R & D Systems), injected intra-cisterna magna (protein, UniProt P20096 25-147, looked up)
Interleukin-4: CNDSPLREIINTLNQVTEKGTPCTEMFVPDVLTATRNTTENELICRASRVLRKFYFPRDVPPCLKNKSGVLGELRKLCRGVSGLNSLRSCTVNESTLTTLKDFLESLKSILRGKYLQSCTSMS

Assays:
Type in all cases: in vivo, rat
[1] = tested on: IL-4; test: Blocking of M. vaccae effects on hippocampal gene expression by ICM soluble IL-4 receptor alpha; details: 5 μg, ICM injection after M. vaccae at day −21, −14, −7
Method: FIG. 25 is a schematic depicting the experimental design configured to develop and validate IL-4 blocking methods in the brain. The schematic depicts the timing of M. vaccae or BBS treatment and intra-cisterna magna (ICM) injections containing soluble IL-4 receptor alpha or vehicle followed by tissue collection and analysis.
FIG. 26A-C show rtPCR detection in collection tissue samples after ICM injections for IL-4 (A); CD200R1 (B); and CD206 (C).
In this embodiment, rats were administered M. vaccae or BBC (at day −21, −14, and −7) and then administered 5 μg of soluble IL-4 receptor alpha or a control vehicle.

[2] = tested on: Cd200; test: Hippocampal Cd200 mRNA expression (real time RT-PCR); details: 100 ng i.c.m., 2 h and 24 h post-injection
Method: (§1) Animals: Adult male Sprague-Dawley rats (60-90 d old) were pair-housed with food and water available ad libitum. The colony was maintained at 22° C. on a 12 h light/dark cycle (lights on at 07:00 h).
(§2) M. vaccae treatment: M. vaccae is a saprophytic environmental mycobacterium, which we have used previously to mitigate stress-induced anxiety-like behavior and peripheral proinflammatory responses. Briefly, whole heat-killed M. vaccae (strain NCTC 11659, batch ENG 1; Bio Elpida; 10 mg/ml) was suspended in sterile borate-buffered saline (BBS) to yield a final concentration of 1 mg/ml. Sterile BBS served as the vehicle control. Consistent with our prior work with M. vaccae, experimental animals received 3× subcutaneous (s.c.) immunizations with 0.1 mg whole heat-killed M. vaccae suspension (0.1 ml) or vehicle (0.1 ml). Injections occurred at −21 d, −14 d and −7 d prior to stress exposure. FIG. 5 provides a timeline of M. vaccae treatment relative to stress exposure, behavioral testing and tissue/microglia collection.
(§3) Recombinant rat IL4 (rIL4) treatment: Vehicle (sterile 1× PBS+0.1% BSA) or rIL4 (100 ng dissolved in vehicle; R & D Systems) was injected intra-cisterna magna (i.c.m.; 5 μl total volume). Two and 24 h post-injection, hippocampus was collected for gene expression analysis of IL4-sensitive target genes. […]

[3] = tested on: Mrc1; test: Hippocampal Mrc1 mRNA expression (real time RT-PCR); details: 100 ng i.c.m., 2 h post-injection
Method: as §1, §2, §3

[4] = tested on: Cd200r1; test: Hippocampal Cd200r1 mRNA expression (real time RT-PCR); details: 100 ng i.c.m.
Method: as §1, §2, §3

Row | Molecule | Effect of M. vaccae administration on hippocampal gene expression [1] | Cd200 expression in hippocampus [2] | Mrc1 expression in hippocampus [3] | Cd200r1 expression in hippocampus ([4]; 2 h post-injection) | Cd200r1 expression in hippocampus ([4]; 24 h post-injection)
1 | soluble IL-4 receptor alpha: soluble form of IL-4 receptor alpha, can inhibit IL4-mediated cell proliferation; ICM injection | blocked | – | – | – | –
2 | B1 | – | failed to significantly alter | significant increase | significant increase | significant increase
